{"source": "paper PMC3510444", "about": "(Molecular Cell, 2012)", "target": "T1, LC3A, purified, for fluorescence anisotropy (human, UniProt Q9H492 1-121)", "T1 construct": "LC3A, human ATG8 ortholog; Construct limits and whether the tag was removed may stand in the Supplemental Experimental Procedures; source: E. coli (pETM30 vectors for biochemical experiments), purified", "experiment": "fluorescence polarisation; fluorescence anisotropy, equilibrium; purified ATG8 orthologs serially diluted and mixed with equal volumes of 100 nM FITC-labeled NDP52 peptides; PheraStar plate reader", "conditions": "both partners purified", "note": "Where no end group is shown, it is not given here.", "data": [{"binder": "ENEEDWLVVTTQGE (also: FITC label (end not given here), NDP52, human, CLIR region, 14-mer, Ile133 replaced with Trp; also called CLIR^I133W)", "note": "[FITC-labeled NDP52 CLIR peptide (aa 128-141), I133W]", "values": [{"measurement": "Kd", "value": 0.29, "unit": "µM"}]}, {"binder": "ENEEDILVVTTQGE (also: FITC label (end not given here), NDP52, human, CLIR region, 14-mer; also called CLIR^WT)", "note": "[FITC-labeled NDP52 CLIR peptide (aa 128-141), wild type]", "values": [{"measurement": "Kd", "value": 15.1, "unit": "µM"}]}]}
